Tested on: Escherichia coli TOP10
Test: shrunken log2 fold change of peptide-encoding DNA abundance (4.5 h post-induction vs induction); higher = less antimicrobial activity (less host growth inhibition)
Details: time post-induction: 4.5 h; library: site-saturation at positions 5, 18, 19, 20
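Also: peptides expressed intracellularly from a pBAD plasmid library in pooled LB shake-flask culture, induced with 0.3% L-arabinose, DNA abundance read by NGS, three biological replicates, DESeq2 with apeglm shrinkage.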

For RRIRSRPPRLPRPRPRPDDLPRP, the “shrunken log2 fold change” value was 0.0166.

For RRIRSRPPRLPRPRPRPDEAPRP, the “shrunken log2 fold change” value was -0.104.

With RRIRSRPPRLPRPRPRPDEYPRP the “shrunken log2 fold change” value was -0.205.

With RRIRSRPPRLPRPRPRPDGDPRP the “shrunken log2 fold change” value was -0.197.

RRIRSRPPRLPRPRPRPDILPRP was tested, and the “shrunken log2 fold change” value was 0.115.

For RRIRSRPPRLPRPRPRPDIWPRP, the “shrunken log2 fold change” value was 0.00423.

For RRIRSRPPRLPRPRPRPDKCPRP, the “shrunken log2 fold change” value was -0.173.

In the case of RRIRSRPPRLPRPRPRPDLIPRP, the “shrunken log2 fold change” value is reported as -0.00967.

For RRIRSRPPRLPRPRPRPDNHPRP, the “shrunken log2 fold change” value was -0.307.

In the case of RRIRSRPPRLPRPRPRPDQKPRP, the “shrunken log2 fold change” value is reported as -0.00231.

RRIRSRPPRLPRPRPRPDRDPRP was tested, and the “shrunken log2 fold change” value was -0.0344.

With RRIRSRPPRLPRPRPRPDRFPRP the “shrunken log2 fold change” value was -0.0456.

In the case of RRIRSRPPRLPRPRPRPDRNPRP, the “shrunken log2 fold change” value is reported as -0.228.

For RRIRSRPPRLPRPRPRPDTRPRP, the “shrunken log2 fold change” value was -0.337.

With RRIRSRPPRLPRPRPRPDVWPRP the “shrunken log2 fold change” value was 0.49.

RRIRSRPPRLPRPRPRPDWQPRP was tested, and the “shrunken log2 fold change” value was -0.162.

With RRIRSRPPRLPRPRPRPDWSPRP the “shrunken log2 fold change” value was 0.276.

With RRIRSRPPRLPRPRPRPDWTPRP the “shrunken log2 fold change” value was -0.179.

For RRIRSRPPRLPRPRPRPDWYPRP, the “shrunken log2 fold change” value was -0.3.

For RRIRSRPPRLPRPRPRPDYNPRP, the “shrunken log2 fold change” value was -0.622.

For RRIRSRPPRLPRPRPRPDYQPRP, the “shrunken log2 fold change” value was -0.242.

RRIRSRPPRLPRPRPRPEAAPRP was tested, and the “shrunken log2 fold change” value was 0.873.

For RRIRSRPPRLPRPRPRPEAEPRP, the “shrunken log2 fold change” value was 0.841.

For RRIRSRPPRLPRPRPRPEAKPRP, the “shrunken log2 fold change” value was 0.401.

With RRIRSRPPRLPRPRPRPEDGPRP the “shrunken log2 fold change” value was 0.0117.

RRIRSRPPRLPRPRPRPEFQPRP was tested, and the “shrunken log2 fold change” value was 0.161.

In the case of RRIRSRPPRLPRPRPRPEGCPRP, the “shrunken log2 fold change” value is reported as 0.0128.

For RRIRSRPPRLPRPRPRPEHTPRP, the “shrunken log2 fold change” value was 0.262.

For RRIRSRPPRLPRPRPRPEIFPRP, the “shrunken log2 fold change” value was -0.432.

With RRIRSRPPRLPRPRPRPEIKPRP the “shrunken log2 fold change” value was 0.104.

With RRIRSRPPRLPRPRPRPELQPRP the “shrunken log2 fold change” value was 0.239.

RRIRSRPPRLPRPRPRPENAPRP was tested, and the “shrunken log2 fold change” value was -0.231.

In the case of RRIRSRPPRLPRPRPRPENHPRP, the “shrunken log2 fold change” value is reported as -0.138.

In the case of RRIRSRPPRLPRPRPRPENQPRP, the “shrunken log2 fold change” value is reported as -0.0853.

In the case of RRIRSRPPRLPRPRPRPENYPRP, the “shrunken log2 fold change” value is reported as -0.127.

For RRIRSRPPRLPRPRPRPEPIPRP, the “shrunken log2 fold change” value was 0.312.

RRIRSRPPRLPRPRPRPEQFPRP was tested, and the “shrunken log2 fold change” value was 0.0895.

For RRIRSRPPRLPRPRPRPEQPPRP, the “shrunken log2 fold change” value was 0.591.

In the case of RRIRSRPPRLPRPRPRPESNPRP, the “shrunken log2 fold change” value is reported as -0.126.

RRIRSRPPRLPRPRPRPETFPRP was tested, and the “shrunken log2 fold change” value was 0.0203.

For RRIRSRPPRLPRPRPRPETKPRP, the “shrunken log2 fold change” value was 0.187.

With RRIRSRPPRLPRPRPRPETVPRP the “shrunken log2 fold change” value was 0.211.

RRIRSRPPRLPRPRPRPEWCPRP was tested, and the “shrunken log2 fold change” value was 0.219.

With RRIRSRPPRLPRPRPRPEWQPRP the “shrunken log2 fold change” value was 0.254.

In the case of RRIRSRPPRLPRPRPRPEYFPRP, the “shrunken log2 fold change” value is reported as -1.04.

In the case of RRIRSRPPRLPRPRPRPFDSPRP, the “shrunken log2 fold change” value is reported as -0.0702.

In the case of RRIRSRPPRLPRPRPRPFFAPRP, the “shrunken log2 fold change” value is reported as 0.205.

RRIRSRPPRLPRPRPRPFGLPRP was tested, and the “shrunken log2 fold change” value was -0.0988.

For RRIRSRPPRLPRPRPRPFIVPRP, the “shrunken log2 fold change” value was -0.477.

For RRIRSRPPRLPRPRPRPFKKPRP, the “shrunken log2 fold change” value was 0.0549.

With RRIRSRPPRLPRPRPRPFKMPRP the “shrunken log2 fold change” value was -0.357.

RRIRSRPPRLPRPRPRPFKSPRP was tested, and the “shrunken log2 fold change” value was 0.0547.

In the case of RRIRSRPPRLPRPRPRPFLGPRP, the “shrunken log2 fold change” value is reported as -0.186.

RRIRSRPPRLPRPRPRPFLLPRP was tested, and the “shrunken log2 fold change” value was -0.411.

For RRIRSRPPRLPRPRPRPFPEPRP, the “shrunken log2 fold change” value was -0.22.

In the case of RRIRSRPPRLPRPRPRPFPWPRP, the “shrunken log2 fold change” value is reported as -0.0834.

With RRIRSRPPRLPRPRPRPFRMPRP the “shrunken log2 fold change” value was -0.646.

RRIRSRPPRLPRPRPRPFRPPRP was tested, and the “shrunken log2 fold change” value was -0.249.

With RRIRSRPPRLPRPRPRPFSGPRP the “shrunken log2 fold change” value was -0.134.

RRIRSRPPRLPRPRPRPFSSPRP was tested, and the “shrunken log2 fold change” value was -0.113.

With RRIRSRPPRLPRPRPRPFWQPRP the “shrunken log2 fold change” value was 0.909.

RRIRSRPPRLPRPRPRPFWYPRP was tested, and the “shrunken log2 fold change” value was -0.185.

For RRIRSRPPRLPRPRPRPFYEPRP, the “shrunken log2 fold change” value was -0.165.

For RRIRSRPPRLPRPRPRPFYHPRP, the “shrunken log2 fold change” value was -0.28.

For RRIRSRPPRLPRPRPRPFYKPRP, the “shrunken log2 fold change” value was -0.426.

RRIRSRPPRLPRPRPRPGACPRP was tested, and the “shrunken log2 fold change” value was 0.0577.

In the case of RRIRSRPPRLPRPRPRPGAQPRP, the “shrunken log2 fold change” value is reported as 0.68.

With RRIRSRPPRLPRPRPRPGDYPRP the “shrunken log2 fold change” value was -0.0123.

RRIRSRPPRLPRPRPRPGESPRP was tested, and the “shrunken log2 fold change” value was 0.249.

For RRIRSRPPRLPRPRPRPGFGPRP, the “shrunken log2 fold change” value was 0.463.

With RRIRSRPPRLPRPRPRPGFQPRP the “shrunken log2 fold change” value was -0.114.

With RRIRSRPPRLPRPRPRPGFTPRP the “shrunken log2 fold change” value was -0.125.

For RRIRSRPPRLPRPRPRPGGWPRP, the “shrunken log2 fold change” value was 0.705.

With RRIRSRPPRLPRPRPRPGIFPRP the “shrunken log2 fold change” value was 0.201.

In the case of RRIRSRPPRLPRPRPRPGKIPRP, the “shrunken log2 fold change” value is reported as -0.596.

With RRIRSRPPRLPRPRPRPGKKPRP the “shrunken log2 fold change” value was -0.0502.

For RRIRSRPPRLPRPRPRPGKNPRP, the “shrunken log2 fold change” value was -0.166.

RRIRSRPPRLPRPRPRPGMLPRP was tested, and the “shrunken log2 fold change” value was -0.0372.

RRIRSRPPRLPRPRPRPGNHPRP was tested, and the “shrunken log2 fold change” value was -0.311.

With RRIRSRPPRLPRPRPRPGNPPRP the “shrunken log2 fold change” value was 0.0113.

With RRIRSRPPRLPRPRPRPGPMPRP the “shrunken log2 fold change” value was 0.34.

For RRIRSRPPRLPRPRPRPGPSPRP, the “shrunken log2 fold change” value was 0.456.

With RRIRSRPPRLPRPRPRPGQFPRP the “shrunken log2 fold change” value was -0.112.

With RRIRSRPPRLPRPRPRPGQPPRP the “shrunken log2 fold change” value was 0.214.

For RRIRSRPPRLPRPRPRPGQTPRP, the “shrunken log2 fold change” value was -0.0742.

For RRIRSRPPRLPRPRPRPGQWPRP, the “shrunken log2 fold change” value was -0.0109.

In the case of RRIRSRPPRLPRPRPRPGRRPRP, the “shrunken log2 fold change” value is reported as 0.263.

In the case of RRIRSRPPRLPRPRPRPGRSPRP, the “shrunken log2 fold change” value is reported as 0.109.

In the case of RRIRSRPPRLPRPRPRPGRWPRP, the “shrunken log2 fold change” value is reported as 0.657.

With RRIRSRPPRLPRPRPRPGSMPRP the “shrunken log2 fold change” value was -0.201.

With RRIRSRPPRLPRPRPRPGSPPRP the “shrunken log2 fold change” value was 0.106.

With RRIRSRPPRLPRPRPRPGSQPRP the “shrunken log2 fold change” value was -0.492.

RRIRSRPPRLPRPRPRPGTVPRP was tested, and the “shrunken log2 fold change” value was -0.0347.

With RRIRSRPPRLPRPRPRPGWHPRP the “shrunken log2 fold change” value was 0.234.

RRIRSRPPRLPRPRPRPGWTPRP was tested, and the “shrunken log2 fold change” value was -0.0313.

With RRIRSRPPRLPRPRPRPGYHPRP the “shrunken log2 fold change” value was -0.512.

With RRIRSRPPRLPRPRPRPGYPPRP the “shrunken log2 fold change” value was -0.209.

RRIRSRPPRLPRPRPRPGYSPRP was tested, and the “shrunken log2 fold change” value was -0.407.

With RRIRSRPPRLPRPRPRPHAAPRP the “shrunken log2 fold change” value was 0.331.

For RRIRSRPPRLPRPRPRPHDKPRP, the “shrunken log2 fold change” value was -0.214.

With RRIRSRPPRLPRPRPRPHDVPRP the “shrunken log2 fold change” value was -0.0229.

RRIRSRPPRLPRPRPRPHEFPRP was tested, and the “shrunken log2 fold change” value was -0.315.

For RRIRSRPPRLPRPRPRPHFAPRP, the “shrunken log2 fold change” value was 0.0285.

RRIRSRPPRLPRPRPRPHGSPRP was tested, and the “shrunken log2 fold change” value was -0.0567.

For RRIRSRPPRLPRPRPRPHHAPRP, the “shrunken log2 fold change” value was -0.41.

In the case of RRIRSRPPRLPRPRPRPHHVPRP, the “shrunken log2 fold change” value is reported as -0.243.

For RRIRSRPPRLPRPRPRPHICPRP, the “shrunken log2 fold change” value was -0.127.

RRIRSRPPRLPRPRPRPHIHPRP was tested, and the “shrunken log2 fold change” value was 0.966.

RRIRSRPPRLPRPRPRPHINPRP was tested, and the “shrunken log2 fold change” value was -0.607.
